For test [1], the target named is T1, human tumor necrosis factor-α (R & D Co., Catalog Number: 210-TA-050) (human, UniProt P01375 77-233). Put plainly: cell-based or functional assay.
The target in test [2] is T1, human tumor necrosis factor-α (R & D …). Briefly: cell-based or functional assay. The source holds these as a separate data set.
The target is the same in test [3]. Put plainly: ELISA, plate coated with human TNF-α, Fab titrated, anti-human C-Kappa-HRP. On the technique in general: ELISA stands for enzyme-linked immunosorbent assay.
The target is the same in test [4]. Briefly: BLI, Octet RED 96, biotin-hTNF-α on streptavidin sensor, antibody in solution. The procedure:
hTNF-α (R & D Co., 210-TA-050) and NHS-LCLC-biotin (Catalog Number: 21338, purchased from Thermo-fisher Co.,) were mixed uniformly at a molar ratio of 1:3 and kept at room temperature for 1 hour. Then, the remaining NHS-LCLC-biotin was removed by a PD-10 desalting column (Catalog Number: 17-0851-01, purchased from GE Co.,). The final conjugate products obtained were 50 μg/ml of biotin-hTNF-α.

Substitutions are numbered along the chain they refer to.

T1 sequence (P01375 77-233 limits assumed): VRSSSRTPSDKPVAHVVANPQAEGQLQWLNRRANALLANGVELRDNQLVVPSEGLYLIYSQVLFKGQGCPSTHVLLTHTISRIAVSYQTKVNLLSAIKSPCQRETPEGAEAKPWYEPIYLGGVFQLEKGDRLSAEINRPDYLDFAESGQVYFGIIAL

B1: KS04 (antibody, human IgG1, kappa, V domains shown)
VH: QVQLVESGGGLVKPGGSLRLSCAASGFTFSNAWMNWVRQAPGKGLEWVAEIRSKSINSATHYAESVKGRFTISRDNSKKTLYLEMNSLRVEDTAVYYCSRNYYGSTYDYWGQGTTLTVSS
VL: EIVLTQSPDFQSVTPKEKVTITCRASQSIYSSLHWYQQKPDQSPKLLIKFASQSVSGVPSRFSGSGSGTDFTLTINSLEAEDAATYYCQQSHSWPFTFGSGTNVDIKR
In the case of B1, the “EC50, L929 cytotoxicity experiment” value in test [1] was 0.126 nM.

B2: KS12 (antibody, human IgG1, kappa, V domains shown)
VH: B1 VH
VL: B1 VL with S93W
For the molecule B2, in test [1], the “EC50, L929 cytotoxicity experiment” value was 0.136 nM.

B3: KS07 (antibody, human IgG1, kappa, V domains shown)
VH: B1 VH
VL: B1 VL with S93F
With B3, the “EC50, L929 cytotoxicity experiment” value in test [1] worked out at 0.1 nM.

B4: KS08 (antibody, human IgG1, kappa, V domains shown)
VH: B1 VH
VL: EIVLTQSPDFQSVSPKETVTITCRASQTVHMSLHWYQQKPNQSPRLLIKYGSQSFSGVPSRFSGSGSGTDFTLTINSLEPEDAATYYCQQSHFWPFTFGSGTNVDIKR
Consider B4, for which, in test [1], the “EC50, L929 cytotoxicity experiment” value was 0.113 nM.

B5: KS11 (antibody, human IgG1, kappa, V domains shown)
VH: B1 VH
VL: B4 VL with F93W
Take B5: the “EC50, L929 cytotoxicity experiment” value in test [1] was found to be 0.059 nM.

B6: KS-2E (Fab, V domains shown)
VH: B1 VH with D108Q
VL: B4 VL with F93K
notes: Humanized Fab (heavy chain Fd fragment and light chain), expressed in E. coli periplasm
Regarding B6, the “EC50 (read off the curve); L929 cytotoxicity assay, inhibition rate (%)” value in test [2] was approximately 4 nM. The concentration for a half-maximal effect (EC50) in test [3] is 6.66 nM.

B7: KS10 (Glu) (antibody, V domains shown)
VH: B1 VH with Q1E, N76D, K79N, L81V, E84Q, R89K, V90T
VL: B1 VL with S93W
notes: Full-length IgG1 from CHO cells; VH SH01 with the first amino acid Glu, VK SH08
For the molecule B7, the “EC50, L929 cytotoxicity experiment” value in test [1] worked out at 0.028 nM. Moreover, in test [4], binding was put at a Kd of 0.00218 nM, the koff was determined as 1.02e-07 s⁻¹ and the kon came to 46900 M⁻¹ s⁻¹.

B8: KS02 (antibody, human IgG1, kappa, V domains shown)
VH: B1 VH
VL: B4 VL with F93S
As for B8, the “EC50, L929 cytotoxicity experiment” value in test [1] is 0.109 nM.

One may read the EC50 as the concentration needed to bring the measured effect to its halfway point. High values mean weaker potency, low ones greater potency. By Kd is commonly meant the constant that tells how readily two partners part at equilibrium. A lower Kd goes with higher affinity. The koff is the first-order rate constant of dissociation. Higher therefore signals fast dissociation. Usually kon stands for the rate constant with which the complex forms.
